The values that follow come from the nanobody polyreactivity screen of Harvey et al. (2022).

The nature of the series: yeast display, Sf9 membrane polyspecificity reagent, FACS + sequencing; frameworks hold sequencing errors. The essentials:
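A nanobody's polyreactivity label depends on the gate it was sorted from. Yeast display cells were stained with 10% biotinylated, detergent-solubilized Sf9 membrane reagent for 1 hour at 4 °C, enriched on streptavidin microbeads and sorted by FACS. The low and high (top ~1%) gates were set on anti-HA fluorescence for expression and streptavidin fluorescence for reagent binding.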
Turning to “HVHLVESGGGLVQAGGSLRLSCAASARTFWRYAMGRKRQAPGKERELVAAISVSGGTTYYADAVKGRFTISRDNAQNTVYLQMISLKPEATAVYYCAARYWHSYGYWGQGTQVTVSS”, the “polyreactivity (PSR sort gate)” value is listed as “high polyreactivity”.

In the case of “QVQLVESGGGLVQAGGSLRLTCAASGSIFNRYSMGWYRQATGKERELVAVIRWRDGSTYYADSVKGRFTISRDNEKNTVYLQMNSLKPEDTAVYYCAAVYWGEEYEYWGQGTQVTVSS”, the “polyreactivity (PSR sort gate)” value is given as “low polyreactivity”.

Turning to “QVQLVESGGGLVQAGGSLRLSCAASGSIFTRYAMGWYRQAPGKERELVAAITKSGSRTYYADSVKGRSTISRDNAKNTVYLQMNSLKPEDTAVYYCATLQGDSSSQYDYWGQGTQVTVSS”, the “polyreactivity (PSR sort gate)” value is given as “high polyreactivity”.

As to “QVQLVESGGGLVQAGGSLRLSCAASGITFSHYAMGWYRQAPGKEREFVAAIRYSGGRTYYADSVKGRFTISRDNAKNTVYLQMNSLKPEDTAVYYCAAVVPDRYWGQGTQVTVSS”, the “polyreactivity (PSR sort gate)” value was “high polyreactivity”.

Consider “QVQLVDSVGGLVQAGGSLRLSCAASGLTFLGNAMGWYRQATGKEREFVAGIDRSSVSTYADSVKGRFTISRDNAKNTVYLQMNSLKPEDTEVYYCAVVEYGIWVGWVPYATFGMNYWGQGTQVTVSS”, for which the “polyreactivity (PSR sort gate)” value is recorded as “high polyreactivity”.

Take “QVQLVESGGGLVQAGGSLRLSCAASGLTFRPNAMGWYRQAPGKERELVAAITWRGGRTYYADSVKGRFTISRDNAKNTVYLQMNSLKPEDTAVYYCAADSPYRGRPGPLNYGGDYWGQGTQVTVSS”: the “polyreactivity (PSR sort gate)” value was “high polyreactivity”.

As to “QVQLVESGGGLVQAGGSLRLSCAASGYTINPYAIGWYRQAPGKERELVATIRSSGSTNYADSVKGRFTISRDNAKYTVYLQRNSLKPEDTAVYYFAARTSGRTVRYYYWGQGTQVTVSS”, the “polyreactivity (PSR sort gate)” value is recorded as “high polyreactivity”.

For the sequence “QVQLVESGGGLVQAGGSLRLSCAAYGRTSRRNAMGWYRQAPGKERELVAAINRTGGTTYYADYVKGRFTISRDNAKNTVYLQMNSLKPVVNAVYYCAAGAPLSTPRGTTYRYYYWGQGTQVTVSS”, the “polyreactivity (PSR sort gate)” value is “high polyreactivity”.

Turning to “QVQLVESGGGLVQAGGSLRLSCAASGIIFNTYVMGWYRQAPGKERELVAAISRRGGSTYYADSVKGRFTISRDNAKNTVYLQMNSLKPEDTAVYYCAADVLYQQAGSYYWGQGTQVTVSS”, the “polyreactivity (PSR sort gate)” value is “high polyreactivity”.

For the sequence “QFQLEESGGGLVQAGGSLRLSCAASARIFLNYAMGWFRQAPGKEMELVAAIRSASSTYYADSVKGRFTISRDNAKNTVYLQMNSLKAEDTAVYYCARLRYFLLNGSLRYGSSDRDYWGQGTQVTVSS”, the “polyreactivity (PSR sort gate)” value is given as “high polyreactivity”.

As for “QVQLVESGGGLVQAGGSLRLSCAASGSTFGINAMGWYRQAHGKERELVARISSGVRTYYADSVKGRFTISRDNAKNTVYLQMNSLKPEDTAVYYCAAVYYRGVDRAILSYRYYYWGQGTQVTVSS”, the “polyreactivity (PSR sort gate)” value is given as “high polyreactivity”.

Turning to “QVQLVESGGGLVQAGGSLRLSCPASGRTFVVYAMGWYRQAPGKEREFVAAITTRGNSTYYADSVKGRFTISRDNAKNTVYLQMNSLKPEDTAVYYCAAVLRLSTLTTDFGYWGQGTQVTVSS”, the “polyreactivity (PSR sort gate)” value is given as “high polyreactivity”.

For “QVQLVDSGGGLVQAGGSLRLTCDASGSTFYVNFMGWYRQAPGKERELDALIDWRGGSTYYADSVKGRFTISRDNAKNTVYLQMNSLKPEDTAVYYCKKDAQFYYKLPYYKERDWGQGTQVTVSS”, the “polyreactivity (PSR sort gate)” value was “low polyreactivity”.

On to “QVQLVESWGGLVQAGGSLRLSCAASGFTLTPYAMGWYRQAPGKERELVAASRWSGGSTYYADSVKGRFTISRDNAKNTVYLQMNSLKPEDTAVYYCAARYAYRPVNGYKYWGQGTQVTVSS”, for which the “polyreactivity (PSR sort gate)” value is recorded as “high polyreactivity”.

“QVQLVESGGGLVQAGGSLRLSCAASGSIFGYNAMGWYRQAPGKERELVAAITSIGGNTYADSVKGRFTISRDNAKNTVYLQMNSLKPEDTAVYYCAAERNTDPIQVVYEFDYWGQGTQVTVSS”: the “polyreactivity (PSR sort gate)” value is “low polyreactivity”.

Take “QVQLVESGGGLVQAGGSLRLSCAASGSIFGYYAMGWYRQAPGKERELVAAISWSGGRTYYADSVKGRFTISRDNAKNTVYLQMNSLKPEDTAVYYCNARWRSGPRAYDYWGQGTQVTVSS”: the “polyreactivity (PSR sort gate)” value is “high polyreactivity”.

For the sequence “QVQLVESGGGLVQAGGSLRLSCAASGSIFRPYAMGWYRQAPGKERELVAGITWGGSRTYYADSVKGRFTISRDNAKNTVYLQMNSLKPEDTAVYYCAAYPSTNGYIYYYWGQGSQVTVSS”, the “polyreactivity (PSR sort gate)” value is listed as “high polyreactivity”.

In the case of “QVQLVESGGGLVQAGGSLRLSCAASGRIFGENAMGWYRQAPGKERELVAAINSGGSTSYADSVKGRFTISRDNAKNTVYLQMNSLKPEDTAVYYCAADEIQGFYTHSFEYWGQGTQVTVSS”, the “polyreactivity (PSR sort gate)” value was “low polyreactivity”.

As for “QVQLVESGGGLVQAGGSLRLSCAASGSIFRIYAKGWYRQAPGKERELVAAISSTGSTSYADSVKGRFTISRDNAKNTVYLQMNSLKPEDTAVYYCAAGVYALRRDYWVQGTQVTVSS”, the “polyreactivity (PSR sort gate)” value was “low polyreactivity”.

As to “QVQLVESGGGLVQEGGSLRLSCAASGRTFGVYAMGWYRQAPGKESTYYADSVKGRFTISRDNAKNTVYLQMNSQKQEDTAVYYCAADEWYYIDPSDDYWGQGSQVTVSS”, the “polyreactivity (PSR sort gate)” value was “low polyreactivity”.

In the case of “QVQLVESGGGLVQAGGSLRLSCAASGSIFRGYGMGWYRQAPGKERELVAAITSGDSTNYADSVKARFTLSRDNAKTTVYLQMNSLKPEDTAVNYCAAASTGRPSVSYDYWGQGTQVTVSS”, the “polyreactivity (PSR sort gate)” value is reported as “low polyreactivity”.

Consider “QVHLVESRGGLLQAGGSLRLSCAASVYIFYYYAMGWYRQAPGKEREFVAAITSGDSTYADSVKGRFTISRDNAKNTVYLQMYSLKPEDTAVYYCAAESYFFSPRTREKFDSWGQGTQVTVSS”, for which the “polyreactivity (PSR sort gate)” value is reported as “low polyreactivity”.

As for “QVQLVESGGGLVQAGGSLRLSCAASGFILAWYAMGWYRQAPGKERELVAAISTSGDSTYYADSVKGRFTISRDNAKNTVYLQMNSLKPEDTAVYYCAAGTFKPYWRKFEYWGQGTQVTLSS”, the “polyreactivity (PSR sort gate)” value was “high polyreactivity”.

As for “QEQLQESGSGLVQAGGSLRLSCAASGNIFQDWVMGWYRQAPGKERELVAAISPGAITYYADSVKGRFTISRDNAKYTVYLQTNSLKPEDTAVYYCAAYYIVEYLHGYWGQGTRVTVSS”, the “polyreactivity (PSR sort gate)” value is “low polyreactivity”.

Regarding “QVQVESGGGLVQAGGSLRLSCGASGSIIDQYVMGWYRQAPGKERELVAAISRGGRTYYADSVKGRFTISRDNAKNTVYLQMNSLNPEDTAVYYCATGYGPYLGRPHLTLYYYWGQGTQVTVSS”, the “polyreactivity (PSR sort gate)” value is recorded as “low polyreactivity”.

Turning to “QVQLVESGGGLVQAGVSLRLSCAASGSTLVLNAMGWYRQAPGKERELDAAISRGGGSTSYADSVKGRFTISRDNAKNTVYLQMNSLKPEDTAVYYCNAYTYYHANHVQGFGYWGQGTQVTVSS”, the “polyreactivity (PSR sort gate)” value is recorded as “low polyreactivity”.

Turning to “QVQLVESGGGLVQAGGSLRLSCAASGSTFAGNAIGWYRQAPGKERELVAAITSGTGTHYADSVKGRFTISRDNAKNSVYLQMNSLKPEDTAVYYCAAEVWSWAGIWGYEYWGQGTQVTVSS”, the “polyreactivity (PSR sort gate)” value is recorded as “low polyreactivity”.

For “QVQLVESVGGLVQAGGSLRLSCAASGSTFGYYTMGSYRQAPGKEKELVAAITWSGGSTYYADSVKGRITISRDNAKYTVYLQINSLKPEDTAVYYCADDDYWTPFGYLGQGTQVTVSS”, the “polyreactivity (PSR sort gate)” value is “low polyreactivity”.

For “QVQLVESGGGLVQAGGSLRLSCAASGTTFWRYTMGWYRQAPGKERELVAAISTRGGSTTYADSVKGRFTISRDKAKNNVYLQMNSLKPEDTAVYYCNADGYRGYYGRNKSKYDYWGQGTQVTVSS”, the “polyreactivity (PSR sort gate)” value is given as “high polyreactivity”.

For the sequence “QVQLVETGGGLVQAGGSLRLSCAASGSTFTSNAMGWYRPAPGKERELVAAIDSSDGITYYADSVKGRFTISRDNAKNTVYLQMNSLKPEDTAVYYCAAEDYEAGYDYWGQGTQVTVSS”, the “polyreactivity (PSR sort gate)” value was “high polyreactivity”.

Take “QVQLVESGGGLVQAGGSLRLSCAASGRTFVYNAMGWYRQAPGKERELVAAISSDGASTYYADSVKGRFTISRDNAKNTVYLQMNSLKPEDTAVYYCAADLLVSWWLDYDYWGQGTQVTVSS”: the “polyreactivity (PSR sort gate)” value was “low polyreactivity”.

For the sequence “QVQLVESGGGLVQAGGSLRLSCAASGRIFRWYAMGWYRQAPGKERELVATISSTGGSTYYADSVKGRFTISRDNAKNTVYLQMNSLKPEDTAVYYCAVDPRGHEGVRYNYWGQGTQVTVSS”, the “polyreactivity (PSR sort gate)” value is recorded as “low polyreactivity”.

As for “QVQLVESGRGLVQAGGSLRLSCAASGSTFDANAMGWYRQAPGKERELVAAISRSGGNTYYADSVKGRFTISRDNAKNTVYLQMNSLKPEDTAVYYCAADFRNAYYDRLDYWGQGTHVTVSS”, the “polyreactivity (PSR sort gate)” value is “low polyreactivity”.

For “QVQLVESGGGIVQAGGSLRLSCAASGSTYNLNALGWSRQAPGKERELVAAIDSGGRTNYADSVKGRFTISRDNAKNTVYVQMNSLKPEDTAVYYCAADVYAYPGSWYDYWGQGTQVTVSS”, the “polyreactivity (PSR sort gate)” value is recorded as “low polyreactivity”.

With “QVQLVESGGGLVQAGGSLRLSCAASGSTFYGNAMGWYRQAPGKERELVAAITWGDASTYYADSVKGRFTISRDNAKNTDYLQMNSLKPEDTAVYYCAVDESYGSSSDMDYWGQGTQVTVSS”, the “polyreactivity (PSR sort gate)” value was “low polyreactivity”.

As to “QVQLVESGGGLVQVGGSLRLSCAASGSNFPANAMGWYRQAPGKEWEFVAAINWSTGTTYYADSVKGRFTISRDNAKNTVYLQMNSLKPEDTAVYYCNASDQAKYDYWGQGTQVTVSS”, the “polyreactivity (PSR sort gate)” value is given as “low polyreactivity”.

For the sequence “QVQLVESGGGLVQAGGSIRLTCAASGLIIGVYAKGWYRQAPGKERELVAAITDGGSTYYADSVKGRFTISRDNEQNTVSLQMNSVKPEDTAVYYCAREQGVNRNHDYWGQGTQVTVSS”, the “polyreactivity (PSR sort gate)” value was “low polyreactivity”.

As to “QVQLVESGGGLVQAGGILLLSCAASGFIFWYYTMGWYKQAPGKERELVAAINSGGSTNYPDSVKGRFTSSRDNAKNTVYLQMNSLKPEDTAVYYCAALVWYSGELFYYWGQGTQVTVSS”, the “polyreactivity (PSR sort gate)” value is on record as “low polyreactivity”.

Consider “QVQLVESGGGLVQAGGSLRFSCAASGRIFSIYAMGWYRQAPGKERELVAAISKRGGSTSYADSVKGRFTISRDNAKNTVYLQMNSLKPEDTAVYYCNARGWIPARGWDDYYWGQGTQVTVSS”, for which the “polyreactivity (PSR sort gate)” value is “high polyreactivity”.

Take “QVQLVESGGGLVQAGGSLRLSCAASGYIFAGYALGWYRQAPGKERELVARISRRGGITYYADSVKGRFTISRDNAKNTVYLQMNSLKPEDTAVYYCNGLGQSSSYDYWGQGTQVTVSS”: the “polyreactivity (PSR sort gate)” value is recorded as “high polyreactivity”.

In the case of “QVQLVESGGGLVQAGGSLRLSCAASGSIFSNYAMGWYRQAPGKERELVAAITLSSGGTYYADSVKGRFTISRDNAKNTVYLQMNSLKPEDTAVYYCAAQYKYFIHRYYYWGQGTQVTVSS”, the “polyreactivity (PSR sort gate)” value is on record as “high polyreactivity”.
